The source of these data is PMC10352329.

Assay in all cases: ITC
Background: ITC needs no label: the signal is the heat of the interaction.

The target of assay [1] is H4 (1–20) K5ac/K8ac peptide (Homo sapiens). Particulars: domain or fragment.
For assay [2], the target named is H4 (1–20) unmodified peptide (Homo sapiens). Particulars: domain or fragment; chains chain; fluorescently labeled with a His tag Labeling Kit (microscale thermophoresis only). On the technique in general: Microscale thermophoresis detects binding through changes in fluorescence in a small temperature gradient.
The target of assay [3] is H2B (1–27) unmodified peptide (Homo sapiens). Particulars: domain or fragment; chains chain; fluorescently labeled with a His tag Labeling Kit (microscale thermophoresis only).
Chain of H2B (1–27) unmodified peptide (Homo sapiens) (main, as listed by the source): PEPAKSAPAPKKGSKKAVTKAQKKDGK

B1: human p300BRP (residues 1048–1282), wild type, Q09472 1048-1282 (protein)
chain: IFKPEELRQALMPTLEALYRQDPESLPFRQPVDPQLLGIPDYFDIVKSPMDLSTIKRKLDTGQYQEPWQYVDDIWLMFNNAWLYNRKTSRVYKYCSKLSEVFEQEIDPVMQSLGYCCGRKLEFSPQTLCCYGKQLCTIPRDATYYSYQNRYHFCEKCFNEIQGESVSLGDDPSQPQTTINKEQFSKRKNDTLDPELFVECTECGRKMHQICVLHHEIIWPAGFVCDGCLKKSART
For the molecule B1, the Kd – broadly, the equilibrium constant for the complex coming apart – is 240 µM in assay [1], above 500 µM in assay [2] and above 500 µM in assay [3].
